Assay results published in IntAct's records for PubMed 29892012.

B1: TBC1 domain family member 22B (Homo sapiens), Q9NU19 (parent)
chain: MAAENSKQFWKRSAKLPGSIQPVYGAQHPPLDPRLTKNFIKERSKVNTVPLKNKKASSFHEFARNTSDAWDIGDDEEEDFSSPSFQTLNSKVALATAAQVLENHSKLRVKPERSQSTTSDVPANYKVIKSSSDAQLSRNSSDTCLRNPLHKQQSLPLRPIIPLVARISDQNASGAPPMTVREKTRLEKFRQLLSSQNTDLDELRKCSWPGVPREVRPITWRLLSGYLPANTERRKLTLQRKREEYFGFIEQYYDSRNEEHHQDTYRQIHIDIPRTNPLIPLFQQPLVQEIFERILFIWAIRHPASGYVQGINDLVTPFFVVFLSEYVEEDVENFDVTNLSQDMLRSIEADSFWCMSKLLDGIQDNYTFAQPGIQKKVKALEELVSRIDEQVHNHFRRYEVEYLQFAFRWMNNLLMRELPLRCTIRLWDTYQSEPEGFSHFHLYVCAAFLIKWRKEILDEEDFQGLLMLLQNLPTIHWGNEEIGLLLAEAYRLKYMFADAPNHYRR
partner: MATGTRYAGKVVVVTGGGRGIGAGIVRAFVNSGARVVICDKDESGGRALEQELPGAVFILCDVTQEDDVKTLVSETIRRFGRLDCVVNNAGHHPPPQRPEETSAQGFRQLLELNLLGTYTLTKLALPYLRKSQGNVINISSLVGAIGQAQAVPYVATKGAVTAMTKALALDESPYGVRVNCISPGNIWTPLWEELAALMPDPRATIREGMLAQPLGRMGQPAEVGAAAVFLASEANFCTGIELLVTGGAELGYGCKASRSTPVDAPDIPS
B2: Zyxin (Homo sapiens), Q15942 (parent)
chain: MAAPRPSPAISVSVSAPAFYAPQKKFGPVVAPKPKVNPFRPGDSEPPPAPGAQRAQMGRVGEIPPPPPEDFPLPPPPLAGDGDDAEGALGGAFPPPPPPIEESFPPAPLEEEIFPSPPPPPEEEGGPEAPIPPPPQPREKVSSIDLEIDSLSSLLDDMTKNDPFKARVSSGYVPPPVATPFSSKSSTKPAAGGTAPLPPWKSPSSSQPLPQVPAPAQSQTQFHVQPQPQPKPQVQLHVQSQTQPVSLANTQPRGPPASSPAPAPKFSPVTPKFTPVASKFSPGAPGGSGSQPNQKLGHPEALSAGTGSPQPPSFTYAQQREKPRVQEKQHPVPPPAQNQNQVRSPGAPGPLTLKEVEELEQLTQQLMQDMEHPQRQNVAVNELCGRCHQPLARAQPAVRALGQLFHIACFTCHQCAQQLQGQQFYSLEGAPYCEGCYTDTLEKCNTCGEPITDRMLRATGKAYHPHCFTCVVCARPLEGTSFIVDQANRPHCVPDYHKQYAPRCSVCSEPIMPEPGRDETVRVVALDKNFHMKCYKCEDCGKPLSIEADDNGCFPLDGHVLCRKCHTARAQT
partner: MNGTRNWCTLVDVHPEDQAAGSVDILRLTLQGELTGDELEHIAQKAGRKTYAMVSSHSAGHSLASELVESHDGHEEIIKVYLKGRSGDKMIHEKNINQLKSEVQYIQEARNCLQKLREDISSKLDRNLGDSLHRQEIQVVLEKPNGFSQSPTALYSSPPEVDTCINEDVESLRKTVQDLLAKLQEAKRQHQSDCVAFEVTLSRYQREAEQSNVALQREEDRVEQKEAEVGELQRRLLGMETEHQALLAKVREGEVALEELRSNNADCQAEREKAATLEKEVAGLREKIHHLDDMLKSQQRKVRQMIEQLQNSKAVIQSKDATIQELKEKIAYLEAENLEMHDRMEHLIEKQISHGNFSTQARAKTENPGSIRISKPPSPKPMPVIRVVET
B3: Chorion-specific transcription factor GCMb (Homo sapiens), O75603 (parent)
chain: MPAAAVQEAVGVCSYGMQLSWDINDPQMPQELALFDQFREWPDGYVRFIYSSDEKKAQRHLSGWAMRNTNNHNGHILKKSCLGVVVCTQACTLPDGSRLQLRPAICDKARLKQQKKACPNCHSALELIPCRGHSGYPVTNFWRLDGNAIFFQAKGVHDHPRPESKSETEARRSAIKRQMASFYQPQKKRIRESEAEENQDSSGHFSNIPPLENPEDFDIVTETSFPIPGQPCPSFPKSDVYKATCDLATFQGDKMPPFQKYSSPRIYLPRPPCSYELANPGYTNSSPYPTLYKDSTSIPNDTDWVHLNTLQCNVNSYSSYERSFDFTNKQHGWKPALGKPSLVERTNHGQFQAMATRPYYNPELPCRYLTTPPPGAPALQTVITTTTKVSYQAYQPPAMKYSDSVREVKSLSSCNYAPEDTGMSVYPEPWGPPVTVTRAASPSGPPPMKIAGDCRAIRPTVAIPHEPVSSRTDEAETWDVCLSGLGSAVSYSDRVGPFFTYNNEDF
partner: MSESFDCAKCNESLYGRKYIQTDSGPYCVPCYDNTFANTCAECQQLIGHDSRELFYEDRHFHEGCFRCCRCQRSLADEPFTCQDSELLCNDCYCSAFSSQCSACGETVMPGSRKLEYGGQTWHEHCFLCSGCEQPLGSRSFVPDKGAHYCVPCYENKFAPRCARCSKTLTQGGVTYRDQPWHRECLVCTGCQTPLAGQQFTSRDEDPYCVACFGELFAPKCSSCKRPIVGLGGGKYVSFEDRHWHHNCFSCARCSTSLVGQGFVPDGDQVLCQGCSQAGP
B4: Coiled-coil alpha-helical rod protein 1 (Homo sapiens), Q8TD31 (parent)
chain: MFPPSGSTGLIPPSHFQARPLSTLPRMAPTWLSDIPLVQPPGHQDVSERRLDTQRPQVTMWERDVSSDRQEPGRRGRSWGLEGSQALSQQAEVIVRQLQELRRLEEEVRLLRETSLQQKMRLEAQAMELEALARAEKAGRAEAEGLRAALAGAEVVRKNLEEGSQRELEEVQRLHQEQLSSLTQAHEEALSSLTSKAEGLEKSLSSLETRRAGEAKELAEAQREAELLRKQLSKTQEDLEAQVTLVENLRKYVGEQVPSEVHSQTWELERQKLLETMQHLQEDRDSLHATAELLQVRVQSLTHILALQEEELTRKVQPSDSLEPEFTRKCQSLLNRWREKVFALMVQLKAQELEHSDSVKQLKGQVASLQEKVTSQSQEQAILQRSLQDKAAEVEVERMGAKGLQLELSRAQEARRRWQQQTASAEEQLRLVVNAVSSSQIWLETTMAKVEGAAAQLPSLNNRLSYAVRKVHTIRGLIARKLALAQLRQESCPLPPPVTDVSLELQQLREERNRLDAELQLSARLIQQEVGRAREQGEAERQQLSKVAQQLEQELQQTQESLASLGLQLEVARQGQQESTEEAASLRQELTQQQELYGQALQEKVAEVETRLREQLSDTERRLNEARREHAKAVVSLRQIQRRAAQEKERSQELRRLQEEARKEEGQRLARRLQELERDKNLMLATLQQEGLLSRYKQQRLLTVLPSLLDKKKSVVSSPRPPECSASAPVAAAVPTRESIKGSLSVLLDDLQDLSEAISKEEAVCQGDNLDRCSSSNPQMSS
partner: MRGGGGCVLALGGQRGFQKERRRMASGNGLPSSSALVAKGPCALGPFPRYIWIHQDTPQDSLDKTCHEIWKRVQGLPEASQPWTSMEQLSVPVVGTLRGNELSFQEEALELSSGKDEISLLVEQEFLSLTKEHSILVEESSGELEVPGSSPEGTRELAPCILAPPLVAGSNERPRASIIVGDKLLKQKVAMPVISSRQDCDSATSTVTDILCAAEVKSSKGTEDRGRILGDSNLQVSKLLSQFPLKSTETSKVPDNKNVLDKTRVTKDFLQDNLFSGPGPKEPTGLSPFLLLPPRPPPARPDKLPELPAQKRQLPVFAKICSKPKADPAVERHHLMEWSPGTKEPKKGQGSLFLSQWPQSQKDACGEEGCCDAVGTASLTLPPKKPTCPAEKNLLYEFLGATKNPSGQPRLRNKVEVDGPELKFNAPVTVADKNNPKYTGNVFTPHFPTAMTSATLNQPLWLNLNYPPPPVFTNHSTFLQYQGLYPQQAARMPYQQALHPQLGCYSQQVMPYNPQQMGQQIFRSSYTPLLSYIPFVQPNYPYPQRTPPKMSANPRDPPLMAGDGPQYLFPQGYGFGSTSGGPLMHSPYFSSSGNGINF
B5: Coiled-coil alpha-helical rod protein 1 (Homo sapiens), Q8TD31 (parent)
chain: B4 chain
partner: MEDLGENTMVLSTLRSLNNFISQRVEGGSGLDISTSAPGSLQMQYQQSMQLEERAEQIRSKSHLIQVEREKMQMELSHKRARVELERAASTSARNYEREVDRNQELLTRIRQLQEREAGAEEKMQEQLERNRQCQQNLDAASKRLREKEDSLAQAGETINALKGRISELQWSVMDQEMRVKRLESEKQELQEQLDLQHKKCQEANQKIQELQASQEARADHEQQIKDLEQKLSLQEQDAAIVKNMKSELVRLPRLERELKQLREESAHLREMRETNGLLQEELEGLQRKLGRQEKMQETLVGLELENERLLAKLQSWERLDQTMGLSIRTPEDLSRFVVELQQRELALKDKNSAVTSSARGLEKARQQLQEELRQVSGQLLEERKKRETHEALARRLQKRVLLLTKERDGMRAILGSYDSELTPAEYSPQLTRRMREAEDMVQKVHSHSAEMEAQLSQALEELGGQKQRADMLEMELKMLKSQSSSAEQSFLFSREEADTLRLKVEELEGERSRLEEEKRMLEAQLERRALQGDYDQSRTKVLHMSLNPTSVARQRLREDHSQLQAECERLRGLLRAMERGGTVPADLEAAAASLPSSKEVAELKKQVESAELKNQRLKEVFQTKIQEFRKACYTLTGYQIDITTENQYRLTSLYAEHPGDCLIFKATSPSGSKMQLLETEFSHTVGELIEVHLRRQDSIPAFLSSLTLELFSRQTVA
B6: Coiled-coil alpha-helical rod protein 1 (Homo sapiens), Q8TD31 (parent)
chain: B4 chain
partner: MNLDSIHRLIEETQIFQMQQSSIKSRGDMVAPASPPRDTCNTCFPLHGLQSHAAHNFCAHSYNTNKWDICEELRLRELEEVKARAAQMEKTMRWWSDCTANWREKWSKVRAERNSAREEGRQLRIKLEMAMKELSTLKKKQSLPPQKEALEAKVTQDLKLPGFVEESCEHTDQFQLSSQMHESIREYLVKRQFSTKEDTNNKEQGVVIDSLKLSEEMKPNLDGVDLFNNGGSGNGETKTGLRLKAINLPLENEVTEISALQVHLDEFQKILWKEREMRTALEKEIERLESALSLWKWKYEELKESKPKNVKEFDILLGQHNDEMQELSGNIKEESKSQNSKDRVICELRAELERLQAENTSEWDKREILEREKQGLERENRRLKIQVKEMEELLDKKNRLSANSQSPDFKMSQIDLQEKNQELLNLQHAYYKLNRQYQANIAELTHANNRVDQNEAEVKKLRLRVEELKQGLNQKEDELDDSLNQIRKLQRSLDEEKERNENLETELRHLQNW
B7: Inactive peptidyl-prolyl cis-trans isomerase FKBP6 (Homo sapiens), O75344 (parent)
chain: MGGSALNQGVLEGDDAPGQSLYERLSQRMLDISGDRGVLKDVIREGAGDLVAPDASVLVKYSGYLEHMDRPFDSNYFRKTPRLMKLGEDITLWGMELGLLSMRRGELARFLFKPNYAYGTLGCPPLIPPNTTVLFEIELLDFLDCAESDKFCALSAEQQDQFPLQKVLKVAATEREFGNYLFRQNRFYDAKVRYKRALLLLRRRSAPPEEQHLVEAAKLPVLLNLSFTYLKLDRPTIALCYGEQALIIDQKNAKALFRCGQACLLLTEYQKARDFLVRAQKEQPFNHDINNELKKLASCYRDYVDKEKEMWHRMFAPCGDGSTAGES
partner: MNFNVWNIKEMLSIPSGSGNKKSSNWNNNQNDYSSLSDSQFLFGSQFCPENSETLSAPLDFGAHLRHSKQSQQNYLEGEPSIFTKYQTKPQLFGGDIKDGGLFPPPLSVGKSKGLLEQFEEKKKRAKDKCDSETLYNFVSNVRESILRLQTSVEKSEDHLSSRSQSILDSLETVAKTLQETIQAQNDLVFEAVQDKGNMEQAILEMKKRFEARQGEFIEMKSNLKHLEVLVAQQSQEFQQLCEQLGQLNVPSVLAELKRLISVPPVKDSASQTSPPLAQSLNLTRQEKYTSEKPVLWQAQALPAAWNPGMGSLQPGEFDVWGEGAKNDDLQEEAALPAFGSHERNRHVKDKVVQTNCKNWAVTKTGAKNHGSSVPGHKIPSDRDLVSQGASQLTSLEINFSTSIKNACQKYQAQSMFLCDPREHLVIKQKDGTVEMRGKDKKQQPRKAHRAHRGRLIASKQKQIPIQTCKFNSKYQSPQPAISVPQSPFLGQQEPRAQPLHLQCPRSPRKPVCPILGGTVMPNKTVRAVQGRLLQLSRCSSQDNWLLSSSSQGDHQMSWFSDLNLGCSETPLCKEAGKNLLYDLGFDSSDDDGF
B8: Coiled-coil alpha-helical rod protein 1 (Homo sapiens), Q8TD31 (parent)
chain: B4 chain
partner: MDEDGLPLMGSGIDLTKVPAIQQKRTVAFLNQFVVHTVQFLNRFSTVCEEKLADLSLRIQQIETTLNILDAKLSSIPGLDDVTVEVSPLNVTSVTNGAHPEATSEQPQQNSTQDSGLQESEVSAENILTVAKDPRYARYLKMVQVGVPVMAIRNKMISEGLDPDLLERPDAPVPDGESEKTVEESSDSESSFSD

Variants of: B1
Settings: with dhb14_human HSD17B14, Q9BPX1

Variant | effect of a mutation on the interaction
A349T | disrupting interaction strength

Variants of: B2
Settings: with tuft1_human TUFT1, Q9NNX1

Variant | effect of a mutation on the interaction
R167G | with no effect

Variants of: B3
Settings: with fhl3_human FHL3, Q13643

Variant | effect of a mutation on the interaction
G349E | with no effect

Variants of: B4
Settings: with ca094_human C1orf94, Q6P1W5

Variant | effect of a mutation on the interaction
W337R | disrupting interaction strength

Variants of: B5
Settings: with md1l1_human MAD1L1, Q9Y6D9

Variant | effect of a mutation on the interaction
W337R | disrupting interaction strength

Variants of: B6
Settings: with CCDC102B

Variant | effect of a mutation on the interaction
W337R | disrupting interaction strength

Variants of: B7
Settings: with iho1_human IHO1, Q8IYA8

Variant | effect of a mutation on the interaction
L246F | disrupting interaction strength

Variants of: B8
Settings: with wasc3_human WASHC3, Q9Y3C0

Variant | effect of a mutation on the interaction
W337R | disrupting interaction strength
